T1: C3G-AAAP (human, UniProt Q13905-1 4-1077, P283A | P284A | L286 | P287 | P289A | P453A | P454A | L456A | P457A | K459A | …)
T1 construct: human C3G isoform a, residues 4-1077; only P4 kept, P1, P2 and P3 mutated to Ala; source: E. coli BL21 (DE3), purified (IMAC, TEV digestion, reversed IMAC, SEC); not shown: His, N-terminal, cleaved; Halo, N-terminal, cleaved
T1 sequence (looked up): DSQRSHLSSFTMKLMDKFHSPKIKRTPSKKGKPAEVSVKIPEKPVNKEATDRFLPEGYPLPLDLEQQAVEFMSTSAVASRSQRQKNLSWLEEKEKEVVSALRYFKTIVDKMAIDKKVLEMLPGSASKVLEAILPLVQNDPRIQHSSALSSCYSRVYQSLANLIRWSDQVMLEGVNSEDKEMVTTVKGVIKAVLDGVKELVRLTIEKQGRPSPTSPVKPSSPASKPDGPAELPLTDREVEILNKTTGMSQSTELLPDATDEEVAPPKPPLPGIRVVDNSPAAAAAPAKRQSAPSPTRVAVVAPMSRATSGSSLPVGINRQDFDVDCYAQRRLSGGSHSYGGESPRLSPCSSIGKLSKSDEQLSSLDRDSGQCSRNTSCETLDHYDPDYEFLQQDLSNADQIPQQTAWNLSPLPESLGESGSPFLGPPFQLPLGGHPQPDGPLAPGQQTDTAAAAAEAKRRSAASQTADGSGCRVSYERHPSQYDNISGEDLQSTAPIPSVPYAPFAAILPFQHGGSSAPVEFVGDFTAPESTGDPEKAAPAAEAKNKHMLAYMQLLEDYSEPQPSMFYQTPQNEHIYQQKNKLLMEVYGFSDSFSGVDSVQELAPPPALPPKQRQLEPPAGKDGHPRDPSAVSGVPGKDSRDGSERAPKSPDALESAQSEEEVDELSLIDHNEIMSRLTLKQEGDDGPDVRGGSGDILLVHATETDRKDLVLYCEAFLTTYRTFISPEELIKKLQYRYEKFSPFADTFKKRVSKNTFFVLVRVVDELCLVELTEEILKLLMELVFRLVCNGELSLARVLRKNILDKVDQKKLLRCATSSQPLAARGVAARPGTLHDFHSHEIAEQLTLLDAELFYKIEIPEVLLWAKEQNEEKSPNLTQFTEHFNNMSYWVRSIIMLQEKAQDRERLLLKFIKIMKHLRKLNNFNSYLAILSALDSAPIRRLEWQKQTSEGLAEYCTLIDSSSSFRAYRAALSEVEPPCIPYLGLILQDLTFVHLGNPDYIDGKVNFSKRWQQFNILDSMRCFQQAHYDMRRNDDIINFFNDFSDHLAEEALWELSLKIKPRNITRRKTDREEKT

T2: C3G (full-length, residues 4-1077) (human, UniProt Q13905-1 4-1077)
T2 construct: also called C3G WT; RapGEF1; source: E. coli BL21 (DE3), purified (IMAC, TEV digestion, reversed IMAC, SEC); not shown: His, N-terminal, cleaved; Halo, N-terminal, cleaved
T2 sequence (looked up): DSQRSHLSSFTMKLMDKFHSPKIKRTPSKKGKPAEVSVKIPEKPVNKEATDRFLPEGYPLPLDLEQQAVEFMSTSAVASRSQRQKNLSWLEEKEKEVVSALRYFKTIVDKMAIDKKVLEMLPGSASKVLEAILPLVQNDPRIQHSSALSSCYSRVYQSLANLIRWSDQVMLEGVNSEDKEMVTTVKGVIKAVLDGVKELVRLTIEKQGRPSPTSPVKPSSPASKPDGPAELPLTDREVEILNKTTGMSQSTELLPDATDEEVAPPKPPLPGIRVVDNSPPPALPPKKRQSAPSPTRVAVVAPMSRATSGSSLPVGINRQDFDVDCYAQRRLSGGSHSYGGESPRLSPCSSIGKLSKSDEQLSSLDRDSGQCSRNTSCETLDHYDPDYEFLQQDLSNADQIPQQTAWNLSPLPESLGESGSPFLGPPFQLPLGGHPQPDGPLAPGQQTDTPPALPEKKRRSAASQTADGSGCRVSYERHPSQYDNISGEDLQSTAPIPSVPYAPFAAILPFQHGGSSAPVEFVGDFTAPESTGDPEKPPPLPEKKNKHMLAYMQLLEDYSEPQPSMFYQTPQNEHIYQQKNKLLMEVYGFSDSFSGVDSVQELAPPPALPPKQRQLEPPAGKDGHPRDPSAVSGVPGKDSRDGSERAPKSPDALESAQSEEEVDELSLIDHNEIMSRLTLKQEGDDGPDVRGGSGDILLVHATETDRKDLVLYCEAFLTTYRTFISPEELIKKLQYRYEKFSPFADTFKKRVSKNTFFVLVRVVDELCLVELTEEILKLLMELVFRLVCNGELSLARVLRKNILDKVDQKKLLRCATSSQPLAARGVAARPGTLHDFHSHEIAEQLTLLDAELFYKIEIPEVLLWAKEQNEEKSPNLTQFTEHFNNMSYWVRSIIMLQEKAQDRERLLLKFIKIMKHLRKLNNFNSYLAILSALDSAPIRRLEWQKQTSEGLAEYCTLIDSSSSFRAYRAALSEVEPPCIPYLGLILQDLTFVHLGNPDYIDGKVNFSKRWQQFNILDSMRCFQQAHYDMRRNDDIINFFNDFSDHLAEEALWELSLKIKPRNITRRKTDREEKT

B1: CrkL (full-length) (natural protein, human, UniProt P46109 1-303, looked up)
chain: MSSARFDSSDRSAWYMGPVSRQEAQTRLQGQRHGMFLVRDSSTCPGDYVLSVSENSRVSHYIINSLPNRRFKIGDQEFDHLPALLEFYKIHYLDTTTLIEPAPRYPSPPMGSVSAPNLPTAEDNLEYVRTLYDFPGNDAEDLPFKKGEILVIIEKPEEQWWSARNKDGRVGMIPVPYVEKLVRSSPHGKHGNRNSNSYGIPEPAHAYAQPQTTTPLPAVSGSPGAAITPLPSTQNGPVFAKAIQKRVPCAYDKTALALEVGDIVKVTRMNINGQWEGEVNGRKGLFPFTHVKIFDPQNPDENE
notes: human CrkL, residues 1-303, in pETEV15b; also called Crk-like protein; source: E. coli BL21 (DE3), purified (IMAC, TEV digestion, SEC); not shown: His, N-terminal, cleaved
B2: CrkL-SH3N (domain or fragment, human, UniProt P46109 125-182, looked up)
chain: LEYVRTLYDFPGNDAEDLPFKKGEILVIIEKPEEQWWSARNKDGRVGMIPVPYVEKLV
notes: human CrkL, SH3N domain, residues 125-182, in pETEV15b; source: E. coli BL21 (DE3), purified (IMAC, TEV digestion, SEC); not shown: His, N-terminal, cleaved

Assays:
C3G-AAAP = target: T1, C3G-AAAP; test: ITC; single-PRM mutant of C3G in the cell titrated with CrkL or CrkL-SH3N, 25 °C, 300 mM NaCl, pH 7.5; SEDPHAT, 1:1 heteroassociation model; N is the competent fraction of C3G; details: both partners purified
[1] = target: T2, C3G (full-length, residues 4-1077); test: ITC; C3G or pC3G in the cell titrated with the Crk protein, 25 °C, 300 mM NaCl, pH 7.5; global fit of three titrations with SEDPHAT, three symmetric binding sites, microscopic kd; details: both partners purified

| Binder | Kd (C3G-AAAP) [µM] | stoichiometry N (C3G-AAAP) | Kd [1] [µM] |
| --- | --- | --- | --- |
| B1 | 2.4 |  |  |
| B2 | 2.7 | 0.71 | 1.6 |
